5 molecules from patent publication US20120034215A1 (Daiichi Sankyo, published 2012) can be followed below.

In test [1] the target is T1, mouse MST1R with N-terminal Flag tag, expressed on HEK293T cells (mouse, UniProt Q62190 24-1378).
T1 construct: ORF cloned excluding the signal peptide region; not shown: N-terminal Flag tag from vector pFLAG-myc-CMV-19 (Sigma)
T1 sequence: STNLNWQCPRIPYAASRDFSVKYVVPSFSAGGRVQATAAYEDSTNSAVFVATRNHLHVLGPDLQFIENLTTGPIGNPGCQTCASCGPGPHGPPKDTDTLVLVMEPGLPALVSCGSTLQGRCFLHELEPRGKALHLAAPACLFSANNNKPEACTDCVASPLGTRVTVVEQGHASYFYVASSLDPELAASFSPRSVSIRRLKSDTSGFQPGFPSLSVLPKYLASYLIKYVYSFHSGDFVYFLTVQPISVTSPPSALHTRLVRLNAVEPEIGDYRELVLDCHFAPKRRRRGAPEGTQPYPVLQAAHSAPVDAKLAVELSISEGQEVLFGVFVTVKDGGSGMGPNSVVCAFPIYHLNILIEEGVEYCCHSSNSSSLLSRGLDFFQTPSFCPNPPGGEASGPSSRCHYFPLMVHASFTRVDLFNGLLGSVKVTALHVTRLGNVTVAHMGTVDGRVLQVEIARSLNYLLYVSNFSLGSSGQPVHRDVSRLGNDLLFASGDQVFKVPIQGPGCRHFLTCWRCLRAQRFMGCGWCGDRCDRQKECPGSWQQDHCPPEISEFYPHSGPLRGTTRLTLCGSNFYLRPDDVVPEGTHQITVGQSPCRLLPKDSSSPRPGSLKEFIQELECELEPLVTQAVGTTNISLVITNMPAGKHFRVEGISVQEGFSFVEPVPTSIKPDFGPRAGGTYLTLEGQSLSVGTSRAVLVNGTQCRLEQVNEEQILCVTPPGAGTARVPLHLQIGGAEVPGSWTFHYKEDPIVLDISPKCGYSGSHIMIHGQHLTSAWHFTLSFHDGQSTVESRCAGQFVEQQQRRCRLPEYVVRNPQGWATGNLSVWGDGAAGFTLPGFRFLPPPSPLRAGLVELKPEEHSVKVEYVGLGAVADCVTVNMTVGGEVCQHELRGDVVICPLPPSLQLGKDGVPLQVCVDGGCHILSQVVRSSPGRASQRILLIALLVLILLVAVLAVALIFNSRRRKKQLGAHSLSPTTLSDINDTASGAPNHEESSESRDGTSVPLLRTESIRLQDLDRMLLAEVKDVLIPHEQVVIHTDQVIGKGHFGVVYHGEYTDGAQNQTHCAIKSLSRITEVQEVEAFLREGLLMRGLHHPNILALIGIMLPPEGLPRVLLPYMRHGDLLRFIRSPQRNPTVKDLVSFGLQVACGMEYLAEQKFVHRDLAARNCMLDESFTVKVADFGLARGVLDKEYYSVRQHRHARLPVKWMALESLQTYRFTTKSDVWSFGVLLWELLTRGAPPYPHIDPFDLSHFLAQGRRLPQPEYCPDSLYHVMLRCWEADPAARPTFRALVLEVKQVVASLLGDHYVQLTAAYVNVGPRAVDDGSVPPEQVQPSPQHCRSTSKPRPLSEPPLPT
Description: flow cytometry on HEK293T cells transfected with Flag-tagged mouse MST1R (expression shown by αFlag), FITC-labeled secondary antibody. On the procedure:
Cells (5×10⁵ cells/well) were incubated with Fab or IgG antibodies at the indicated concentrations in 50 μl FACS buffer (PBS, 5% FCS) for 60 min at 4° C. in round bottom 96-well culture plates (Corning). Cells were washed twice and then incubated with Fluorescein Isothiocyanate (FITC) conjugated detection antibody for 30 min at 4° C. Cells were washed again, resuspended in 0.3 ml FACS buffer and then analyzed by flow cytometry in a Cytomics FC500 (Beckman Coulter, Inc.). Data were analysed via FlowJo software (Tomy digital biology Co., Ltd.). Polyclonal goat anti-hMSP R IgG (R&D systems) or anti-FLAG M2 antibody (Sigma) was used as a positive control and MOR03207 (anti-lysozyme) antibody was used as a negative control.
FACS-analysis of MST1R ortholog-expressing cells: Human MST1R (cDNA nucleotide sequence is shown as GenBank Accession No: NM_{—}002447.2), cynomolgus monkey MST1R and mouse MST1R (cDNA nucleotide sequence is shown as GeneBank Accession No: NM_{—}009074.1) expression vector containing N-terminal Flag tag (pFLAG-myc-CMV-19, Sigma) were constructed. cDNA encoding cynomolgus monkey MST1R was amplified by PCR using cynomolgus monkey stomach cDNA as a template with forward and reverse primers having nucleotide sequences of SEQ ID NO: 34 and 35, respectively. By sequencing analysis of PCR product, the cynomolgus MST1R ORF nucleotide sequence was identified as shown in SEQ ID NO: 36. The corresponding amino acid sequence was shown in SEQ ID NO: 37. Then human, cynomolgus monkey and mouse MST1R ORF cDNA, excluding signal peptide regions, were amplified using respective forward and reverse primers having nucleotide sequences of SEQ ID NO: 38 and 39 (human), 40 and 41 (cynomolgus monkey), and 42 and 43 (mouse) with appropriate cloning sites and then cloned into pFLAG-myc-CMV-19. An amplified human MST1R fragment encodes amino acids corresponding to GenBank Accession No: NP_{—}002438.2 (SEQ ID NO: 45). A Mouse MST1R fragment encodes amino acids corresponding to GenBank Accession No: NP_{—}033100.1 (SEQ ID NO: 47) except for those amino acid differences at positions: 688 (Leu to Pro), 713 (Ile to Val), 714 (Ala to Gly) and 719 (Ala to Val). These expression vectors were transfected into HEK293T cells. For FACS-analysis, cells were incubated with 2 μg/ml primary antibodies followed by incubation with FITC-labeled secondary antibody as described above.
A general note: Flow cytometry measures light scatter and fluorescence of single cells or particles in a stream.

Test [2] addresses MST1R on cells (293alpha cells transfected with pcDNA-DEST40 MST1R; endogenous on PC3, T-47D and BxPC-3 cells) (human, UniProt Q04912 25-1400). Description: cell-based or functional assay.

B1: MOR07923 (human IgG1) (antibody, V domains shown)
VH: QVQLVESGGGLVQPGGSLRLSCAASGFTFNSYSMSWVRQAPGKGLEWVSYISSRSSTTYYADSVKGRFTISRDNSKNTLYLQMNSLRAEDTAVYYCARGYFHGMDYWGQGTLVTVSS
VL: DIVLTQSPATLSLSPGERATLSCRASQSVSFDYLGWYQQKPGQAPRLLIYGASNRATGVPARFSGSGSGTDFTLTISSLEPEDFATYYCFQYLIVPFTFGQGTKVEIKR
For the molecule B1, in test [1], the binding result is given as “no binding (tested: 2 µg/ml)”. Further, in test [2], the “Reporter assay IC50 (ng/ml); Elk1 luciferase reporter gene assay in the presence of 100 ng/ml MSP” value (“Reporter assay IC50 (ng/ml)” below) amounted to 9 ng/mL.

B2: MOR07925 (human IgG1) (antibody, V domains shown)
VH: QVQLVESGGGLVQPGGSLRLSCAASGFTFNSYSMSWVRQAPGKGLEWVSYISSRSSTTYYADSVKGRFTISRDNSKNTLYLQMNSLRAEDTAVYYCARGYFHGMDYWGQGTLVTVSS
VL: DIVLTQSPATLSLSPGERATLSCRASQSVSFDYLGWYQQKPGQAPRLLIYGASNRATGVPARFSGSGSGTDFTLTISSLEPEDFATYYCLQYFNPPHTFGQGTKVEIKR
B2: in test [1], the binding result is on record as “no binding (tested: 2 µg/ml)”. Further, in test [2], the “Reporter assay IC50 (ng/ml)” value was determined as 5.9 ng/mL.

B3: MOR07692 (human IgG1) (antibody, V domains shown)
VH: QVQLVESGGGLVQPGGSLRLSCAASGFTFNSYSMSWVRQAPGKGLEWVSYISSRSSTTYYADSVKGRFTISRDNSKNTLYLQMNSLRAEDTAVYYCARGYFHGMDYWGQGTLVTVSS
VL: DIVLTQSPATLSLSPGERATLSCRASQSVSFDYLGWYQQKPGQAPRLLIYGASNRATGVPARFSGSGSGTDFTLTISSLEPEDFATYYCQQYYNMPYTFGQGTKVEIKR
Take B3: in test [1], the binding result is on record as “no binding (tested: 2 µg/ml)”. In test [2], the “Reporter assay IC50 (ng/ml)” value was 4.4 ng/mL.

B4: MOR07926 (human IgG1) (antibody, V domains shown)
VH: QVQLVESGGGLVQPGGSLRLSCAASGFTFNSYSMSWVRQAPGKGLEWVSYISSRSSTTYYADSVKGRFTISRDNSKNTLYLQMNSLRAEDTAVYYCARGYFHGMDYWGQGTLVTVSS
VL: DIVLTQSPATLSLSPGERATLSCRASQSVSFDYLGWYQQKPGQAPRLLIYGASNRATGVPARFSGSGSGTDFTLTISSLEPEDFATYYCFQALIMPFTFGQGTKVEIKR
For B4, in test [1], the binding result is given as “no binding (tested: 2 µg/ml)”. Besides, the “Reporter assay IC50 (ng/ml)” value in test [2] was found to be 11.4 ng/mL.

B5: MOR07924 (human IgG1) (antibody, V domains shown)
VH: QVQLVESGGGLVQPGGSLRLSCAASGFTFNSYSMSWVRQAPGKGLEWVSYISSRSSTTYYADSVKGRFTISRDNSKNTLYLQMNSLRAEDTAVYYCARGYFHGMDYWGQGTLVTVSS
VL: DIVLTQSPATLSLSPGERATLSCRASQSVSFDYLGWYQQKPGQAPRLLIYGASNRATGVPARFSGSGSGTDFTLTISSLEPEDFATYYCQQYNINPFTFGQGTKVEIKR
As to B5, the binding result in test [1] is reported as “no binding (tested: 2 µg/ml)”. Moreover, the “Reporter assay IC50 (ng/ml)” value in test [2] came out at 15.7 ng/mL.
